This passage reports stoichiometry N results from PMC3749045.

The target of the test is NarXS1 (NarX periplasmic sensor domain, residues 38 - 151) (Escherichia coli K-12) (UniProt P0AFA2). Description: crystal structure.

Usually stoichiometry N stands for the number of molecules, sites or subunits per partner or assembly. “NarXS1 (NarX periplasmic sensor domain, residues 38 - 151) (from UniProt P0AFA2 38-151) (domain or fragment)”: the stoichiometry N amounted to 2.
